Ends that are not written are not given here.
T1: K280-ac protein fragment (human)
T1 construct: also called mAC
T1 peptide: VQIINK(Ac)KLDLSN


Target: T2, Tau (Acetylation -)
T2 construct: also called non-Ac tau protein; non-acetylated wild type tau protein
Test: plate assay as drawn: capture Ab 1ug/well, antigen titrated

T2 sequence (tau protein, as listed by the source): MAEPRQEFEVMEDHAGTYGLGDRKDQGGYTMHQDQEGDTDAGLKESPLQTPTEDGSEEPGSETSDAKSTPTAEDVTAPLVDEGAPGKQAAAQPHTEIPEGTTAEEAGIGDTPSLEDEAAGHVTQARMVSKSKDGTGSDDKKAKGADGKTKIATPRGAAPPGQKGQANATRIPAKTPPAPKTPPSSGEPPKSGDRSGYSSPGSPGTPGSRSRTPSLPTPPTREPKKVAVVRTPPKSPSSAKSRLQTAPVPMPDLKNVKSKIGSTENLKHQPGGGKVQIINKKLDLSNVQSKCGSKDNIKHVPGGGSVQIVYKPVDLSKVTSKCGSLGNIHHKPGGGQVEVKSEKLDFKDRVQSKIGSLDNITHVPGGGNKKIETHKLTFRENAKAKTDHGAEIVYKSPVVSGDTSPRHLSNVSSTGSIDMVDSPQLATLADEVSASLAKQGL

Row | Binder | binding result
1 | ADEL-Y01h01_v01 antibody (antibody, V domains shown, Humanized ADEL-Y01m; It was detected with anti-human IgG; also called ADEL-Y01h v01) VH: EVQLQESGPGLVKPSQTLSLTCTVSGDSITSGYWNWIRQPPGKGLEYIGYIRYSGRTYYNPSLKSRVTISRDTSKNQFSLKLSSVTAADTAVYYCASVYFTYWGQGTLVTVSS VL: DVVMTQSPLSLPVTLGQPASISCKSSQSLLDSDGKTYLNWFQQRPGQSPKRLISLVSKLDSGVPDRFSGSGSGTDFTLKISRVEAEDVGVYYCWQGSHFPYTFGQGTKLEIK | no binding (tested: 100.00 (unit not printed))

Target: T1, K280-ac protein fragment
Test: ELISA on K280-ac coated at 250 ng/well, HRP anti-human IgG
Procedure: In addition, binding of the K280-ac protein fragment prepared in Preparation Example 1 with the ADEL-Y01h (v01 to v12) antibodies prepared in Preparation Example 2 was measured by ELISA.
First, plates were treated with the K280-ac protein fragment at 250 ng/well and reaction was allowed to proceed at 4° C. overnight. The next day, washing with a washing buffer was performed three times, and then treatment with a primary antibody was performed with 8 concentrations (2 μg, 1 μg, 0.5 μg, 0.25 μg, 0.12 μg, 0.06 μg, 0.03 μg, 0.01 μg). As a secondary antibody, HRP-labeled anti-human IgG antibody was used.

Row | Binder | Absorbance at 450nm at 0.01ug/well | Absorbance at 450nm at 0.03ug/well | Absorbance at 450nm at 0.06ug/well | Absorbance at 450nm at 0.12ug/well | Absorbance at 450nm at 0.25ug/well | Absorbance at 450nm at 0.5ug/well | Absorbance at 450nm at 1ug/well | Absorbance at 450nm at 2ug/well | binding result
2 | ADEL-Y01h v05 antibody (antibody, V domains shown, Humanized antibody; It was detected with anti-human IgG; also called Y01h01v05) VH: EVQLQQSGPGLVKPSQTLSLTCAVSGDSITSGYWNWIRQSPSRGLEWLGYIRYSGRTYYNPSLKSRITINRDTSKNQFSLQLNSVTPEDTAVYYCASVYFTYWGQGTLVTVSS VL: DVVMTQSPDSLAVSLGERATINCKSSQSLLDSDGKTYLNWYQQKPGQSPKRLISLVSKLDSGVPDRFSGSGSGTDFTLTISSLQAEDVAVYYCWQGSHFPYTFGQGTKLEIK | 0.131 | 0.224 | 0.431 | 0.908 | 1.3 | 1.7 | 1.85 | 2.06 | 
3 | ADEL-Y01h v08 antibody (antibody, V domains shown, Humanized antibody; It was detected with anti-human IgG; also called Y01h01v08) VH: EVTLKESGPTLVKPTQTLTLTCTVSGDSITSGYWNWIRQPPGKALEYLAYIRYSGRTYYNPSLKSRLTITRDTSKNQVVLTMTNMDPVDTATYYCASVYFTYWGQGTLVTVSS VL: DVVMTQSPDSLAVSLGERATINCKSSQSLLDSDGKTYLNWYQQKPGQSPKRLISLVSKLDSGVPDRFSGSGSGTDFTLTISSLQAEDVAVYYCWQGSHFPYTFGQGTKLEIK | 0.015 | 0.041 | 0.0375 | 0.0745 | 0.0855 | 0.0965 | 0.179 | 0.294 | 
4 | ADEL-Y01h01_v01 antibody (antibody, V domains shown, Humanized ADEL-Y01m; It was detected with anti-human IgG; also called ADEL-Y01h v01) VH: EVQLQESGPGLVKPSQTLSLTCTVSGDSITSGYWNWIRQPPGKGLEYIGYIRYSGRTYYNPSLKSRVTISRDTSKNQFSLKLSSVTAADTAVYYCASVYFTYWGQGTLVTVSS VL: DVVMTQSPLSLPVTLGQPASISCKSSQSLLDSDGKTYLNWFQQRPGQSPKRLISLVSKLDSGVPDRFSGSGSGTDFTLKISRVEAEDVGVYYCWQGSHFPYTFGQGTKLEIK | 0.731 | 0.899 | 1.1 | 1.58 | 1.93 | 2.07 | 2.22 | 2.42 | 
5 | ADEL-Y01h v04 antibody (antibody, V domains shown, Humanized antibody; It was detected with anti-human IgG; also called Y01h01v04) VH: EVQLQQSGPGLVKPSQTLSLTCAVSGDSITSGYWNWIRQSPSRGLEWLGYIRYSGRTYYNPSLKSRITINRDTSKNQFSLQLNSVTPEDTAVYYCASVYFTYWGQGTLVTVSS VL: DVVMTQSPLSLPVTLGQPASISCKSSQSLLDSDGKTYLNWFQQRPGQSPKRLISLVSKLDSGVPDRFSGSGSGTDFTLKISRVEAEDVGVYYCWQGSHFPYTFGQGTKLEIK | 0.354 | 0.537 | 0.822 | 1.43 | 1.74 | 2.04 | 2.18 | 2.32 | 
6 | ADEL-Y01h v02 antibody (antibody, V domains shown, Humanized antibody; It was detected with anti-human IgG; also called Y01h01v02) VH: EVQLQESGPGLVKPSQTLSLTCTVSGDSITSGYWNWIRQPPGKGLEYIGYIRYSGRTYYNPSLKSRVTISRDTSKNQFSLKLSSVTAADTAVYYCASVYFTYWGQGTLVTVSS VL: DVVMTQSPDSLAVSLGERATINCKSSQSLLDSDGKTYLNWYQQKPGQSPKRLISLVSKLDSGVPDRFSGSGSGTDFTLTISSLQAEDVAVYYCWQGSHFPYTFGQGTKLEIK | 0.103 | 0.203 | 0.377 | 0.805 | 1.12 | 1.61 | 1.83 | 2.08 | 
7 | v12 (antibody, V domains shown, also called Y01h01v12; ADEL-Y01h v12 antibody) VH: EVQLVESGGGLVQPGRSLRLSCTVSGDSITSGYWNWFRQAPGKGLEYVGYIRYSGRTYYNPSLKSRFTISRDTSKNIAYLQMNSLKTEDTAVYYCASVYFTYWGQGTLVTVSS VL: EVVLTQSPGTLSLSPGERATLSCKSSQSLLDSDGKTYLNWYQQKPGQSPKRLISLVSKLDSGIPDRFSGSGSGTDFTLTISRLEPEDFAVYYCWQGSHFPYTFGQGTKLEIK | 0.145 | 0.398 | 0.484 | 1.05 | 1.19 | 1.29 | 1.58 | 1.41 | 
8 | ADEL-Y01h v10 antibody (antibody, V domains shown, Humanized antibody; It was detected with anti-human IgG; also called Y01h01v10) VH: EVQLVESGGGLVQPGRSLRLSCTVSGDSITSGYWNWFRQAPGKGLEYVGYIRYSGRTYYNPSLKSRFTISRDTSKNIAYLQMNSLKTEDTAVYYCASVYFTYWGQGTLVTVSS VL: DVVMTQSPLSLPVTLGQPASISCKSSQSLLDSDGKTYLNWFQQRPGQSPKRLISLVSKLDSGVPDRFSGSGSGTDFTLKISRVEAEDVGVYYCWQGSHFPYTFGQGTKLEIK | 0.568 | 0.997 | 1.23 | 1.65 | 1.64 | 1.78 | 1.9 | 1.87 | 
9 | ADEL-Y01h v09 antibody (antibody, V domains shown, Humanized antibody; It was detected with anti-human IgG; also called Y01h01v09) VH: EVTLKESGPTLVKPTQTLTLTCTVSGDSITSGYWNWIRQPPGKALEYLAYIRYSGRTYYNPSLKSRLTITRDTSKNQVVLTMTNMDPVDTATYYCASVYFTYWGQGTLVTVSS VL: EVVLTQSPGTLSLSPGERATLSCKSSQSLLDSDGKTYLNWYQQKPGQSPKRLISLVSKLDSGIPDRFSGSGSGTDFTLTISRLEPEDFAVYYCWQGSHFPYTFGQGTKLEIK | 0.251 | 0.542 | 0.75 | 1.22 | 1.32 | 1.45 | 1.61 | 1.69 | 
10 | v11 (antibody, V domains shown, also called Y01h01v11; ADEL-Y01h v11 antibody) VH: EVQLVESGGGLVQPGRSLRLSCTVSGDSITSGYWNWFRQAPGKGLEYVGYIRYSGRTYYNPSLKSRFTISRDTSKNIAYLQMNSLKTEDTAVYYCASVYFTYWGQGTLVTVSS VL: DVVMTQSPDSLAVSLGERATINCKSSQSLLDSDGKTYLNWYQQKPGQSPKRLISLVSKLDSGVPDRFSGSGSGTDFTLTISSLQAEDVAVYYCWQGSHFPYTFGQGTKLEIK | 0.0085 | 0.0225 | 0.027 | 0.0345 | 0.036 | 0.0395 | 0.0455 | 0.048 | no binding (tested: 2 ug/well)
11 | ADEL-Y01h v06 antibody (antibody, V domains shown, Humanized antibody; It was detected with anti-human IgG; also called Y01h01v06) VH: EVQLQQSGPGLVKPSQTLSLTCAVSGDSITSGYWNWIRQSPSRGLEWLGYIRYSGRTYYNPSLKSRITINRDTSKNQFSLQLNSVTPEDTAVYYCASVYFTYWGQGTLVTVSS VL: EVVLTQSPGTLSLSPGERATLSCKSSQSLLDSDGKTYLNWYQQKPGQSPKRLISLVSKLDSGIPDRFSGSGSGTDFTLTISRLEPEDFAVYYCWQGSHFPYTFGQGTKLEIK | 0.0585 | 0.114 | 0.265 | 0.657 | 1.09 | 1.51 | 1.76 | 2.05 | 
12 | ADEL-Y01h v03 antibody (antibody, V domains shown, Humanized antibody; It was detected with anti-human IgG; also called Y01h01v03) VH: EVQLQESGPGLVKPSQTLSLTCTVSGDSITSGYWNWIRQPPGKGLEYIGYIRYSGRTYYNPSLKSRVTISRDTSKNQFSLKLSSVTAADTAVYYCASVYFTYWGQGTLVTVSS VL: EVVLTQSPGTLSLSPGERATLSCKSSQSLLDSDGKTYLNWYQQKPGQSPKRLISLVSKLDSGIPDRFSGSGSGTDFTLTISRLEPEDFAVYYCWQGSHFPYTFGQGTKLEIK | 0.0815 | 0.17 | 0.302 | 0.641 | 1.06 | 1.51 | 1.79 | 2.06 | 

— patent US20220204601A1 (ADEL, published 2022)
